Experimental findings from patent US20220204643A1 (published 2022) are described below.

Common to all, as to experiment: protein array
Test [1] deals with T1, Long intergenic non-protein coding rna 242 (human, UniProt Q5T6M2 1-205).
T1 construct: on protein array; also called LINC00242
T1 chain: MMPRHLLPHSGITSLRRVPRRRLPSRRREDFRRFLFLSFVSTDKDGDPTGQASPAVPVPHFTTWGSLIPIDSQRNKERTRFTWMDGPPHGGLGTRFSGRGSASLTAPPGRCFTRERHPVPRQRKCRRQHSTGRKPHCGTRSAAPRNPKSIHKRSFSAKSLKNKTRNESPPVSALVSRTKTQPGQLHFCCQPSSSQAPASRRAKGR

In test [2] the target is T2, C-X-C motif chemokine receptor 4, transcript variant 2 (human, UniProt P61073 1-352).
T2 construct: on protein array; also called CXCR4
T2 sequence (P61073 whole entry, change not shown): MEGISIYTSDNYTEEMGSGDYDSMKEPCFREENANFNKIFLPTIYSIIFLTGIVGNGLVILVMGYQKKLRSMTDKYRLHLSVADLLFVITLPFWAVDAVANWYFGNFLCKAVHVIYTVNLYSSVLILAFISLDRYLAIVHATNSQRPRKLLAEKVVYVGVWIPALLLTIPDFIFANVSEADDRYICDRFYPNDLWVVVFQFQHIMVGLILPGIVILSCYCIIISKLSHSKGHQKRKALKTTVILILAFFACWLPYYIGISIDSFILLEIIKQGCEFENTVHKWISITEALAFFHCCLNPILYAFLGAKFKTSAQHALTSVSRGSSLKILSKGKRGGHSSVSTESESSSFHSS

In test [3] the target is T3, neural retina leucine zipper, transcript variant X4 (human, UniProt P54845 1-237).
T3 construct: on protein array; also called NRL
T3 sequence (P54845 whole entry, change not shown): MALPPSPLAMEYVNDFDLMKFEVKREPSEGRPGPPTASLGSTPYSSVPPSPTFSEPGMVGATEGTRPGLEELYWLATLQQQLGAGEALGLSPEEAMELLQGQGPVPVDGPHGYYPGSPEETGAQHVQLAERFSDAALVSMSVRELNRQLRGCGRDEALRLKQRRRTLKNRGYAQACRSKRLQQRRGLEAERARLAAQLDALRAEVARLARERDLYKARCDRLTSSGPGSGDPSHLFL

The target in test [4] is T4, killer cell lectin like receptor Cl, transcript variant 3 (human, UniProt P26715 1-233).
T4 construct: on protein array; also called KLRC1
T4 sequence (P26715 other isoform, or with tags, fused parts or gaps mutant limits assumed): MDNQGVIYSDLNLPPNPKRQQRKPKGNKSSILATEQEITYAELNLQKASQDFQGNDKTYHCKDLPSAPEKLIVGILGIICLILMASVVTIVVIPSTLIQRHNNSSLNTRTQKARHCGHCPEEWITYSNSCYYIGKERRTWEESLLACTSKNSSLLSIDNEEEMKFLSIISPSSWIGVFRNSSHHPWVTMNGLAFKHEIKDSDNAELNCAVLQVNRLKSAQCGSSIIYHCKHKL

Test [5] concerns the target T5, glucuronidase, beta pseudogene (human).
T5 construct: on protein array; also called BC025996.2_frag
T5 chain: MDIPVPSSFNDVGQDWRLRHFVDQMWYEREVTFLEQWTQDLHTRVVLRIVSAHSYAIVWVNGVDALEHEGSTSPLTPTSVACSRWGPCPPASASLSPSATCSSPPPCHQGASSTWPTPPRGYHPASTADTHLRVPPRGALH

In test [6] the target is T6, coiled-coil domain containing 74B, transcript variant 2 (human, UniProt Q96LY2 1-380).
T6 construct: on protein array; also called CCDC74B
T6 sequence (Q96LY2 other isoform, or with tags, fused parts or gaps mutant limits assumed): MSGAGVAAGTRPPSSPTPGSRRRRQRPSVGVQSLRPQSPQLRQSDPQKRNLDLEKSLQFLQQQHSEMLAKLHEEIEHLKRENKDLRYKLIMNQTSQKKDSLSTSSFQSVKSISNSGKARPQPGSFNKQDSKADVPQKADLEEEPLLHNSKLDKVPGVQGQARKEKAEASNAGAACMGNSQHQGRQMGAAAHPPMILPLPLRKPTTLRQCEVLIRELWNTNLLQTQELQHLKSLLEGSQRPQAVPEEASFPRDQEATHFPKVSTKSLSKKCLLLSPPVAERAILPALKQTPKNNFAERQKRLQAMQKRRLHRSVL

Test [7] deals with T7, oxidation resistance 1, transcript variant 1 (human, UniProt Q8N573 90-874, limits assumed).
T7 construct: on protein array; also called OXR1
T7 sequence: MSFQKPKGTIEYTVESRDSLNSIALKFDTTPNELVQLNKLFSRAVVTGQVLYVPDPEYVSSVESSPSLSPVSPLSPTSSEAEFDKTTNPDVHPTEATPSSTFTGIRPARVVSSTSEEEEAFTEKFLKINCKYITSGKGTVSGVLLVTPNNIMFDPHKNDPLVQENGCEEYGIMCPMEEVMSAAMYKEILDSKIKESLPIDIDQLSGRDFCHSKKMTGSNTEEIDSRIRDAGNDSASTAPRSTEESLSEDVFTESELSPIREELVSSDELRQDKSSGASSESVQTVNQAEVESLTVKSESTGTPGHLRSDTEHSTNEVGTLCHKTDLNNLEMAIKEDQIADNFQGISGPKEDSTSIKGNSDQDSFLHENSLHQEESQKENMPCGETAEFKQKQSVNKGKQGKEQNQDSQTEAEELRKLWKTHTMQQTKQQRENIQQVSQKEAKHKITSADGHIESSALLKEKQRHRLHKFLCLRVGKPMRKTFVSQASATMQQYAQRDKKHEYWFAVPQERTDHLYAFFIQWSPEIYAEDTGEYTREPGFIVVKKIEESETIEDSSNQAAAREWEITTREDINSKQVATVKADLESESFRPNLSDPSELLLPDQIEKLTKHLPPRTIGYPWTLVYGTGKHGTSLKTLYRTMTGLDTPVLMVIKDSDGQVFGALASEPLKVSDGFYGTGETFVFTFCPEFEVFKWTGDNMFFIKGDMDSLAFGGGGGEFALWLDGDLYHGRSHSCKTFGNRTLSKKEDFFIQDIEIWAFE

Test [8] has as its target T8, GRB10 interacting GYF protein 1, transcript variant X10 (human, UniProt O75420 1-1035).
T8 construct: on protein array; also called GIGYF1
T8 sequence: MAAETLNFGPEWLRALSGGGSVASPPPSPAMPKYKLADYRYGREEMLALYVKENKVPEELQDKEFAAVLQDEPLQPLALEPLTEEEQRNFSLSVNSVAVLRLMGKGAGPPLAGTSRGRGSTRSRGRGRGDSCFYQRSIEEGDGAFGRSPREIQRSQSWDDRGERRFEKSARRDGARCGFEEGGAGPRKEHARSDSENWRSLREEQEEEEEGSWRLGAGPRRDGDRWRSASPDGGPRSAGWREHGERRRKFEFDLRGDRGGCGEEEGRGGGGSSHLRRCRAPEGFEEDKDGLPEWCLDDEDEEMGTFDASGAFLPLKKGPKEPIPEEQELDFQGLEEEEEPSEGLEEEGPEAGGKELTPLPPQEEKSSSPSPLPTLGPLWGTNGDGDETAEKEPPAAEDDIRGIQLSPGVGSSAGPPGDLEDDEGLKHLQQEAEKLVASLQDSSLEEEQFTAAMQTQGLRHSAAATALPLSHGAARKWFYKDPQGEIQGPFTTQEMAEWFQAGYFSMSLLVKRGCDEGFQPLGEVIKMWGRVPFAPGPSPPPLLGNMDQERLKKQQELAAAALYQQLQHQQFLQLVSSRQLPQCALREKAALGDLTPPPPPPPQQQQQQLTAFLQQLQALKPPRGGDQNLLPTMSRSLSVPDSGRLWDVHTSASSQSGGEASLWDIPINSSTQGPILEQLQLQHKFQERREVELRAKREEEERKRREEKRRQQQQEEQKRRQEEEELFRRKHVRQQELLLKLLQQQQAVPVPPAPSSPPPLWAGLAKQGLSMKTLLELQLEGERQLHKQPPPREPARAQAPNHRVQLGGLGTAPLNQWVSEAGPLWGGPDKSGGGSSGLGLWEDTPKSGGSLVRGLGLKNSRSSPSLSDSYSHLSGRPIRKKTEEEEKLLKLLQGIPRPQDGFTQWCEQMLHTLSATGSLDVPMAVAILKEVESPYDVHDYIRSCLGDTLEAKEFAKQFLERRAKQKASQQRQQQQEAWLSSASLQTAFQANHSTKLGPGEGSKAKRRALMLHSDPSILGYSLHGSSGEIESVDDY

Test [9] deals with T9, Kirre like nephrin family adhesion molecule 1 (human, UniProt Q96J84 17-757).
T9 construct: on protein array
T9 sequence: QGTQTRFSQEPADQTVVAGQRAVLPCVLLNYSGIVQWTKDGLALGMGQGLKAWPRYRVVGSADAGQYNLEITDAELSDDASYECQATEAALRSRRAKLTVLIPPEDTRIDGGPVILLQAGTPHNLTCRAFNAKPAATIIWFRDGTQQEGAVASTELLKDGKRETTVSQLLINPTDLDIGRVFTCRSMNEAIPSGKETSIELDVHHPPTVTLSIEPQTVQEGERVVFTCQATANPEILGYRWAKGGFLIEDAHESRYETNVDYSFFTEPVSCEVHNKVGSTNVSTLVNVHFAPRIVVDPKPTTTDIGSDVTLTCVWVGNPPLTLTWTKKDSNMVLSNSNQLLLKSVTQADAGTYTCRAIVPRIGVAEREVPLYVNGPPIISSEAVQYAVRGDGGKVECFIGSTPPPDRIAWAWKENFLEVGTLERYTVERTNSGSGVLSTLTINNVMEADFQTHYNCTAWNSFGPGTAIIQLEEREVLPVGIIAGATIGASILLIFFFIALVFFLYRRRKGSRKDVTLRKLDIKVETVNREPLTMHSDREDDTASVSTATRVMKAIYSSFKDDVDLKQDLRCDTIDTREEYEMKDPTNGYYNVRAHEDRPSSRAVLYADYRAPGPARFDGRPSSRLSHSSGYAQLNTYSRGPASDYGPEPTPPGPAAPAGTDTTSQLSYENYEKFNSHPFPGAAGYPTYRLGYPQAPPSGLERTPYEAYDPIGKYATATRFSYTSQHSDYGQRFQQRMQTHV

Test [10] deals with T10, Ankyrin repeat domain 20 family member a5, pseudogene (human, UniProt A0PJZ0 1-165).
T10 construct: on protein array; also called ANKRD20A5P
T10 sequence (A0PJZ0 whole entry, the tested form may be a part): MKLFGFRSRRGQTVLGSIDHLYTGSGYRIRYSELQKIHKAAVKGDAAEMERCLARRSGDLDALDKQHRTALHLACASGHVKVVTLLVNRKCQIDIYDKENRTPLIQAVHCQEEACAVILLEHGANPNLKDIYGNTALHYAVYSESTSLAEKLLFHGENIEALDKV

In test [11] the target is T11, BCL2 associated athanogene 2 (human, UniProt O95816 2-211).
T11 construct: on protein array; also called BAG2
T11 sequence (O95816 2-211 limits assumed): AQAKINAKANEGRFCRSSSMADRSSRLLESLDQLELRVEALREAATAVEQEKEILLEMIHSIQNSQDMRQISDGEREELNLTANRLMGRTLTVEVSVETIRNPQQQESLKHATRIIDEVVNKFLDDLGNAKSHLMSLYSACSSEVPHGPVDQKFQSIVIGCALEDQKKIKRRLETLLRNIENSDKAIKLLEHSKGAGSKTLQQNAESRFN

The target of test [12] is T12, heat shock protein family A (Hsp70) member 2 (human, UniProt P54652 1-639).
T12 construct: on protein array; also called HSPA2
T12 sequence (P54652 whole entry): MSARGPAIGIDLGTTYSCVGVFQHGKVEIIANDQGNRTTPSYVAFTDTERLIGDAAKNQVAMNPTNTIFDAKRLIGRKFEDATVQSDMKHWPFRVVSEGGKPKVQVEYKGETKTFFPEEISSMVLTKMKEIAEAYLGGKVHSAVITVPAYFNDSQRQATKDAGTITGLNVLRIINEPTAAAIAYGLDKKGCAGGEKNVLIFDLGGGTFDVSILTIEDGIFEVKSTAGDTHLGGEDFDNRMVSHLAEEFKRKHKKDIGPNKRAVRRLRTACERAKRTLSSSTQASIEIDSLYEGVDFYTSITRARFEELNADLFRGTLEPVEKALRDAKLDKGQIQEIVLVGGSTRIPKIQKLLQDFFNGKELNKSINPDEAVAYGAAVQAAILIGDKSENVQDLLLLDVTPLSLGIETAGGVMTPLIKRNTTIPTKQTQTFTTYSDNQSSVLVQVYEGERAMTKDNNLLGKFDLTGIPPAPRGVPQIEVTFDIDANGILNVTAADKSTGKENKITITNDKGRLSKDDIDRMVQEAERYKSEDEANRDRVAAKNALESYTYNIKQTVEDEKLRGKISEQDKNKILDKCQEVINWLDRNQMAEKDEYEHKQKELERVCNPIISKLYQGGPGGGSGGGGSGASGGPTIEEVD

For test [13], the target named is T13, HSPA (Hsp70) binding protein 1, transcript variant 2 (human, UniProt Q9NZL4 1-359).
T13 construct: on protein array; also called HSPBP1
T13 sequence: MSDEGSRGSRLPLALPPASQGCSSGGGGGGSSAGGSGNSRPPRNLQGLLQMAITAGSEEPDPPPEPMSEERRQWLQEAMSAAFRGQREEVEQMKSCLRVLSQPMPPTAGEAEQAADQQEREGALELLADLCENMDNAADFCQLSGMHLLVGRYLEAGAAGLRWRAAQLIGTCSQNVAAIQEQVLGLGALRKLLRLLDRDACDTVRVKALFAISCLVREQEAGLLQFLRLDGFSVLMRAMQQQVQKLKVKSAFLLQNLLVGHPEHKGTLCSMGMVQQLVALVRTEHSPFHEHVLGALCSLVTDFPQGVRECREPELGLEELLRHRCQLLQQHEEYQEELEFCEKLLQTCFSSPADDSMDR

B1: TSAR1006 (antibody, V domains shown)
VH: QVQLVQSGTEVKKPGASVKVSCKASGYRFTSNGISWVRQAPGQGLQWMGWISTDSGNTNYAQSFQGRVTLTRDTSTNTAYLELRRLRSEDTAVYYCARDKSWYFDYWGQGTLVSVSS
VL: SYELTQPPSVSVSPGQTARITCSGDALPKKYVFWYQQRSGQAPVLVIYEDSKRPSGIPDRFSGSSSGTLATLTISGAQVEDEADYYCYSTDTIGNWVFGGGTRLTVL
notes: VH/VL tied via antigen in summary, not by name in this stretch
Take B1: the binding result in test [1] and in test [2] was “binds” in each case.

B2: TSAR1001 (antibody, V domains shown)
VH: EVQLVESGGGMVQPGESLRLSCAASGFDFTSYWMAWVRQAPGKGLEWVANMNADGSEKHYVDSVKGRFSISRDNAKKLLFLQMNSLTVDDTGVYYCARDEGRREGAWGQGTQVIVSA
VL: EIVLTQSPATLSFSPGDRATLSCRASQNINRFLAWYQQKPGQTPRLLIYDASTRATGIPARFSGSGSGTDFSLIISSLEPEDFAIYYCQQRNNWPITFGPGTKVDVK
notes: as for B1
Take B2: in test [3], the binding result is recorded as “binds”.

B3: TREC1003 (antibody, V domains shown)
VH: QVQLVQSGSEVKKPGASVRLACKTSGYTFSNYGVSWVRQGPGRGLEWLGWISGYNGRTHSADKFRDRVTLTTDTSTTTVYVDLKNLTSDDTAVYYCARVGTSHWYSDSWGQGTLVTVSS
VL: QSVLTQPPSVSGAPGQRVTISCAGSYSNIGAGYDVHWYRQLPGTAPTLLIYSNNNRPSGVSDRFSGSKSGTSASLAITGLQAEDEADYYCQSFDSSLSRSVFGTGTKVTVL
notes: as for B1
As for B3, the binding result in [4] is given as “binds”.

B4: TBRE1006 (antibody, V domains shown)
VH: QVQLVQSGAEVKKPGASVKVSCKASGYIFTSYAIHWVRQAPGQRLEWMGWINAGNGNTKYSQKFQGRVTITRDTSANTAYMELSSLRSEDTAIYYCARDIAVAITNYFGSWGQGTLVTVSS
VL: EIVLTQSPATLSLSPGERATLSCRASQSVGSYLAWYQQKPGQAPRLLIYDASNRATGIPARFSGSGSGTDFTLTISSLEPEDFAVYYCQQGSNWLALTFGGGTKVEIKR
notes: VH/VL only
Turning to B4, the binding result in [5] is “binds”.

B5: TSAR1003 (antibody, V domains shown)
VH: QLQLQESGPGLVKPSETLSLTCTVSGVSIGTSSYYWGWIRQPPAKGLEWIGSIYYSGSTYYNPSLKNRVTISVDTSKNHFSLKLSSVTAADTAVYYCARHRTGQYYYNSWGQGTLVTVSS
VL: SSELTQDPAVSVALGQTVRITCQGDSLRTDYATWYQQKPGQAPILVFYGEDNRPSGIPDRFSGSSSGNTASLTITGAQAEDEADYYCNSRDSSGHHWVFGGGTKLTVL
notes: as for B1
With B5, in test [6], the binding result is “binds”.

B6: TPRO1001 (antibody, V domains shown)
VH: EVQLVQSGAEVKKPGESLRISCKGSGYSFTSFWISWVRQMPGKGLEWMGRIDPSDSYTNYSPSFQGHVTISADKSISTAFLQWSSLKASDTAMYYCARHQQKYSPISPLDYWGQGTLVTVSS
VL: QSALTQPASVSGSPGQSITISCTGTSSDVGGYNYVSWYQQHPGKAPKLMIYDVSNRPSGVSNRFSGSKSGNTASLTISGLQAEDEADYYCSSYTSSSSLVFGGGTKVTVLG
notes: as for B1
As to B6, the binding result in test [7] is reported as “binds”.

B7: TPRO1002 (antibody, V domains shown)
VH: EVQLVESGGGVIKPGGSLKLSCEGSGFTLDDYVMHWVRQAPGKGLEWISSISGDGTRTYYADSVKGRFTISRNNGKNSLYLQMDSLRREDTALYYCAKDARLAYYGMDVWGQGTTVTVSS
VL: QSALTQPASVSGSPGQSITISCTGTSSDIGGYDLVSWYQHHPGKAPKLVISEGSKRPSGVSNRFFGSKSGNTASLTISGLQAEDEADYYCCSFTGTSTFVFGTGTKVTVL
notes: as for B1
Turning to B7, the binding result in test [8], in [9] and in test [10] was “binds” throughout.

B8: TSAR1005 (antibody, V domains shown)
VH: QVQLVESGGGVVQPGRSLRLSCVASGFTFSNYAMHWVRQAPGKGLEWVAVIWYDGSNEYYRDSVEGRFTISRDSSKNTLYLLVNSLRAEDTAVYYCARGNGPKSGKYSDFDYWGQGTLVTVSS
VL: DVVMTQSPLSLPVTLGQAASISCRSSQSLVYSDGNTYLNWFQQRPGQSPRRLIYKVSNRESGVPDRFSGSGSGTDFTLQISRVEAEDVGIYYCMQGAHWPPITFGQGTRLEIKR
notes: as for B1
With B8, the binding result in test [11], in test [12] and in test [13] was “binds” throughout.
